In test [1] the target is His6-tagged junctional adhesion molecule A (UniProt Q9Y624). The experiment in a line: single-virus force spectroscopy (FD-based AFM); virus particles on the AFM tip through a PEG27 linker; His6-JAM-A on an NTA-Ni2+ gold model surface; virus buffer, ~25 °C; after adding 1 mM Neu5Ac; koff of the single bond from a Bell-Evans fit of the DFS plot.
For test [2], the target named is His6-tagged JAM-A (junctional adhesion molecule A) (UniProt Q9Y624). The test can be described thus: single-virus force spectroscopy (FD-based AFM); as a1, after injection of 1 mM sialylated glycan (Neu5Ac or LSTa).
For test [3], the target named is human JAM-A on the surface of Lec2-JAM-A cells (human) (UniProt Q9Y624). The experiment in a line: single-virus force spectroscopy (FD-based AFM); virions on the AFM tip; living Lec2-JAM-A cells co-cultured with fluorescent Lec2 cells; PeakForce QNM mode, 37 °C, culture medium, 5% CO2; no glycan added.
The target is the same in test [4]. The test can be described thus: single-virus force spectroscopy (FD-based AFM); as a4, the same area scanned again after adding 1 mM Neu5Ac or 1 mM LSTa to the culture medium; also on cells treated before with neuraminidase (40 mUnit/mL, 1 h).
In test [5] the target is His6-tagged JAM-A (junctional adhesion molecule A) (UniProt Q9Y624). The experiment in a line: single-virus force spectroscopy (FD-based AFM); virions or ISVPs covalently linked by a PEG27 spacer to the AFM tip; His6-JAM-A immobilised on an NTA-Ni2+ gold surface; virus buffer (150 mM NaCl, 15 mM MgCl2, 10 mM Tris pH 7.4), ~25 °C; single bonds fitted with the Bell-Evans model; no glycan added.

For test [6], the target named is human JAM-A on the surface of Lec2-JAM-A cells (human) (UniProt Q9Y624). The test can be described thus: single-virus force spectroscopy (FD-based AFM); as a4, the same area scanned again after adding 1 mM LNnT to the culture medium.
In test [7] the target is His6-tagged junctional adhesion molecule A (UniProt Q9Y624). The experiment in a line: single-virus force spectroscopy (FD-based AFM); virus particles on the AFM tip through a PEG27 linker; His6-JAM-A on an NTA-Ni2+ gold model surface; virus buffer, ~25 °C; after adding 1 mM LNnT (no sialic acid); koff of the single bond from a Bell-Evans fit of the DFS plot.
For test [8] the target is unchanged. The experiment in a line: single-virus force spectroscopy (FD-based AFM); virus particles on the AFM tip through a PEG27 linker; His6-JAM-A on an NTA-Ni2+ gold model surface; virus buffer, ~25 °C; after adding 1 mM LSTa; koff of the single bond from a Bell-Evans fit of the DFS plot.

A value given as a limit tells only on which side of the number the result lay.

In general, koff refers to a measure of how fast the partners let go of each other. A lower koff goes with slow dissociation.

As to “reovirus σ1 attachment protein on T3SA+ infectious subvirion particles (from UniProt P03528 1-455) (natural protein)”, the koff in test [1] amounted to 0.18 s⁻¹.
On to “reovirus σ1 attachment protein of strain T3SA+, on purified virions (from UniProt P03528 1-455) (natural protein)”, for which, in test [2], the overall binding force with 1 mM Neu5Ac or LSTa was less than 400 pN and the simultaneous virus-receptor bonds in the presence of α-SA was less than 3. In test [3], this substance gave a binding frequency before LNnT of 3.8%, a binding frequency before LSTa of 3.8%, a binding frequency before Neu5Ac of 3.9% and a density of adhesion events of 3.5%. Moreover, in test [3], the rupture force lay within 50 to 400 pN and the simultaneous virus-receptor bonds is less than 4. Further, in test [4], the binding frequency after 1 mM LSTa came out at 4.8%; the binding frequency after 1 mM Neu5Ac worked out at 4.9%; the increase in binding after Neu5Ac against before, neuraminidase-treated cells worked out at 20%. In test [5], this substance gave a koff of 0.04 s⁻¹ and a specific binding force of 20 to 130 pN. The substance also showed a binding frequency after 1 mM LNnT in test [6] of 3.9%.
Regarding “reovirus σ1 attachment protein on T3SA- virions (P204L) (from UniProt P03528 1-455)”, the koff in test [7] came out at 0.07 s⁻¹; in test [1], 0.08 s⁻¹; in test [8] it was 0.24 s⁻¹.
Substance “reovirus σ1 attachment protein of mutant strain T3SA− (P204L), on purified virions (from UniProt P03528 1-455) (natural protein)” returned a frequency of adhesion events in test [3] of 4%. In test [5], this substance had a koff of 0.05 s⁻¹ and a specific binding force of 20 to 130 pN.
